Source: patent US20190241648A1 (STATEN BIOTECHNOLOGY B V, published 2019)
Ends that are not written are not given here.

Assays:
Assay in all cases: peptide microarray
ApoC3 peptide … F64L = molecular target: T1, ApoC3 peptide … F64L (human, not fully specified (bridges); also: cyclic constrained)
T1 peptide: DKFSELWDLDPEV
In short: (§1)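 ApoC3 peptide microarrays incubated with antibody samples and then stained with goat anti-human IgG (Fc) DyLight680 plus anti-HA DyLight800 control antibody. Scanned at intensity 7/7 (red/green); a secondary-only prestain checked for background, and framing HA peptides served as quality control.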

ApoC3 peptide … D66I = molecular target: T2, ApoC3 peptide … D66I (human, not fully specified (bridges); also: cyclic constrained)
T2 peptide: DKFSEFWILDPEV
In short: as §1

ApoC3 peptide … S62A = ApoC3 peptide … S62A (human, cyclic constrained)
In short: as §1

ApoC3 peptide … L67I = molecular target: T3, ApoC3 peptide … L67I (human, not fully specified (bridges); also: cyclic constrained)
T3 peptide: DKFSEFWDIDPEV
In short: as §1

ApoC3 peptide … S62T = ApoC3 peptide … S62T (human, cyclic constrained)
In short: as §1

ApoC3 peptide … F64C = molecular target: T4, ApoC3 peptide … F64C (human, not fully specified (bridges); also: cyclic constrained)
T4 peptide: DKFSECWDLDPEV
In short: as §1

ApoC3 peptide … D66F = molecular target: T5, ApoC3 peptide … D66F (human, not fully specified (bridges); also: cyclic constrained)
T5 peptide: DKFSEFWFLDPEV
In short: as §1

ApoC3 peptide … F64Q = molecular target: T6, ApoC3 peptide … F64Q (human, not fully specified (bridges); also: cyclic constrained)
T6 peptide: DKFSEQWDLDPEV
In short: as §1

ApoC3 peptide … K60E = molecular target: T7, ApoC3 peptide … K60E (human, not fully specified (bridges); also: cyclic constrained)
T7 peptide: DEFSEFWDLDPEV
In short: as §1

ApoC3 peptide … S62V = ApoC3 peptide … S62V (human, cyclic constrained)
In short: as §1

ApoC3 peptide … D68F = molecular target: T8, ApoC3 peptide … D68F (human, cyclic constrained)
T8 peptide: DKFSEFWDLFPEV
In short: as §1

ApoC3 peptide … V71P = ApoC3 peptide … V71P (human, cyclic constrained)
In short: as §1

ApoC3 peptide … E63R = ApoC3 peptide … E63R (human, cyclic constrained)
In short: as §1

ApoC3 peptide … D66S = molecular target: T9, ApoC3 peptide … D66S (human, not fully specified (bridges); also: cyclic constrained)
T9 peptide: DKFSEFWSLDPEV
In short: as §1

ApoC3 peptide … D59S = molecular target: T10, ApoC3 peptide … D59S (human, cyclic constrained)
T10 peptide: SKFSEFWDLDPEV
In short: as §1

ApoC3 peptide … E70I = molecular target: T11, ApoC3 peptide … E70I (human, not fully specified (bridges); also: cyclic constrained)
T11 peptide: DKFSEFWDLDPIV
In short: as §1

ApoC3 peptide … E70K = molecular target: T12, ApoC3 peptide … E70K (human, not fully specified (bridges); also: cyclic constrained)
T12 peptide: DKFSEFWDLDPKV
In short: as §1

ApoC3 peptide … S62E = ApoC3 peptide … S62E (human, cyclic constrained)
In short: as §1

ApoC3 peptide … S62N = ApoC3 peptide … S62N (human, cyclic constrained)
In short: as §1

ApoC3 peptide … F61K = molecular target: T13, ApoC3 peptide … F61K (human, not fully specified (bridges); also: cyclic constrained)
T13 peptide: DKKSEFWDLDPEV
In short: as §1

ApoC3 peptide … E63N = ApoC3 peptide … E63N (human, cyclic constrained)
In short: as §1

ApoC3 peptide … E70A = ApoC3 peptide … E70A (human, cyclic constrained)
In short: as §1

ApoC3 peptide … D66E = molecular target: T14, ApoC3 peptide … D66E (human, not fully specified (bridges); also: cyclic constrained)
T14 peptide: DKFSEFWELDPEV
In short: as §1

ApoC3 peptide … D66Q = molecular target: T15, ApoC3 peptide … D66Q (human, not fully specified (bridges); also: cyclic constrained)
T15 peptide: DKFSEFWQLDPEV
In short: as §1

ApoC3 peptide … D59C = molecular target: T16, ApoC3 peptide … D59C (human, cyclic constrained)
T16 peptide: CKFSEFWDLDPEV
In short: as §1

ApoC3 peptide … F61T = molecular target: T17, ApoC3 peptide … F61T (human, not fully specified (bridges); also: cyclic constrained)
T17 peptide: DKTSEFWDLDPEV
In short: as §1

ApoC3 peptide … F64S = molecular target: T18, ApoC3 peptide … F64S (human, not fully specified (bridges); also: cyclic constrained)
T18 peptide: DKFSESWDLDPEV
In short: as §1

ApoC3 peptide … E63T = ApoC3 peptide … E63T (human, cyclic constrained)
In short: as §1

ApoC3 peptide … D66A = molecular target: T19, ApoC3 peptide … D66A (human, not fully specified (bridges); also: cyclic constrained)
T19 peptide: DKFSEFWALDPEV
In short: as §1

ApoC3 peptide … E63K = ApoC3 peptide … E63K (human, cyclic constrained)
In short: as §1

ApoC3 peptide … D68C = molecular target: T20, ApoC3 peptide … D68C (human, not fully specified (bridges); also: cyclic constrained)
T20 peptide: DKFSEFWDLCPEV
In short: as §1

ApoC3 peptide … D68E = molecular target: T21, ApoC3 peptide … D68E (human, cyclic constrained)
T21 peptide: DKFSEFWDLEPEV
In short: as §1

ApoC3 peptide … D68S = molecular target: T22, ApoC3 peptide … D68S (human, not fully specified; cyclic constrained)
T22 peptide: DKFSEFWDLSPEV
In short: as §1

ApoC3 peptide … E63G = ApoC3 peptide … E63G (human, cyclic constrained)
In short: as §1

ApoC3 peptide … E63H = ApoC3 peptide … E63H (human, cyclic constrained)
In short: as §1

ApoC3 peptide … W65P = molecular target: T23, ApoC3 peptide … W65P (human, not fully specified (bridges); also: cyclic constrained, ring type and places not given here)
T23 peptide: DKFSEFPDLDPEV
In short: as §1

ApoC3 peptide … S62G = ApoC3 peptide … S62G (human, cyclic constrained)
In short: as §1

% of binding to wild-type peptide (ApoC3 peptide … F64L): 89.7% | % of binding to wild-type peptide (ApoC3 peptide … D66I): 0% | % of binding to wild-type peptide (ApoC3 peptide … S62A): 97.3% | % of binding to wild-type peptide (ApoC3 peptide … L67I): 105% | % of binding to wild-type peptide (ApoC3 peptide … S62T): 139% | % of binding to wild-type peptide (ApoC3 peptide … F64C): 76.4% | % of binding to wild-type peptide (ApoC3 peptide … D66F): 7.27% | % of binding to wild-type peptide (ApoC3 peptide … F64Q): 133% | % of binding to wild-type peptide (ApoC3 peptide … K60E): 223% | % of binding to wild-type peptide (ApoC3 peptide … S62V): 93.6% | % of binding to wild-type peptide (ApoC3 peptide … D68F): 0% | % of binding to wild-type peptide (ApoC3 peptide … V71P): 110% | % of binding to wild-type peptide (ApoC3 peptide … E63R): 5.31% | % of binding to wild-type peptide (ApoC3 peptide … D66S): 0% | % of binding to wild-type peptide (ApoC3 peptide … D59S): 87.5% | % of binding to wild-type peptide (ApoC3 peptide … E70I): 1.59% | % of binding to wild-type peptide (ApoC3 peptide … E70K): 0% | % of binding to wild-type peptide (ApoC3 peptide … S62E): 70.7% | % of binding to wild-type peptide (ApoC3 peptide … S62N): 126% | % of binding to wild-type peptide (ApoC3 peptide … F61K): 37.2% | % of binding to wild-type peptide (ApoC3 peptide … E63N): 38.8% | % of binding to wild-type peptide (ApoC3 peptide … E70A): 0.97% | % of binding to wild-type peptide (ApoC3 peptide … D66E): 18.9% | % of binding to wild-type peptide (ApoC3 peptide … D66Q): 0% | % of binding to wild-type peptide (ApoC3 peptide … D59C): 69.2% | % of binding to wild-type peptide (ApoC3 peptide … F61T): 56.3% | % of binding to wild-type peptide (ApoC3 peptide … F64S): 196% | % of binding to wild-type peptide (ApoC3 peptide … E63T): 35.9% | % of binding to wild-type peptide (ApoC3 peptide … D66A): 0% | % of binding to wild-type peptide (ApoC3 peptide … E63K): 7.9% | % of binding to wild-type peptide (ApoC3 peptide … D68C): 5.29% | % of binding to wild-type peptide (ApoC3 peptide … D68E): 56.9% | % of binding to wild-type peptide (ApoC3 peptide … D68S): 0.57% | % of binding to wild-type peptide (ApoC3 peptide … E63G): 20.5% | % of binding to wild-type peptide (ApoC3 peptide … E63H): 12.3% | % of binding to wild-type peptide (ApoC3 peptide … W65P): 13.8% | % of binding to wild-type peptide (ApoC3 peptide … S62G): 53.9%
B1: anti-ApoC3 antibody 6A6 (antibody, V domains shown)
VH: EVQLVESGGGLVQPGGSLRLSCAASGFTFSSYAGRWVRQVPGKGLEWVSSINAGGGSTSYADSVKGRFTISRDNAKNTLYLQMNSLKPEDTAKYYCTQNSYRYWGQGTRVAVSS
VL: DVVLTQTPGSLSVVPGESASISCKASQSLIHTDGKTYLYWLLQKPGQRPQLLIYQVSSHESGVPDRFTGSGSGTDFTLKISGVKAEDAGVYYCAQATYNPRTFGQGTKLEIK
notes: it was detected with goat anti-human IgG (Fc); also called mAb 6A6; llama antibody 6A6
